T1: human VEGF165 (Homo sapiens, UniProt P15692)
T1 sequence (P15692 27-191 isoform P15692-4): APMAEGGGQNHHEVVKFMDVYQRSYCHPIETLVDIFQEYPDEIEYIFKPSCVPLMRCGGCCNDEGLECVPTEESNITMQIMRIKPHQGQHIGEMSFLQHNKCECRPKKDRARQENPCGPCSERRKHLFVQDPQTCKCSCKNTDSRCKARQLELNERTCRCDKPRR

B1: 21M18: anti-DLL4 antibody, parental antibody (Hoey et al., 2009; U.S. Pat. No. 7,750,124) (antibody, V domains shown)
VH: QVQLVQSGAEVKKPGASVKISCKASGYSFTAYYIHWVKQAPGQGLEWIGYISSYNGATNYNQKFKGRVTFTTDTSTSTAYMELRSLRSDDTAVYYCARDYDYDVGMDYWGQGTLVTVSS
VL: DIVMTQSPDSLAVSLGERATISCRASESVDNYGISFMKWFQQKPGQPPKLLIYAASNQGSGVPDRFSGSGSGTDFTLTISSLQAEDVAVYYCQQSKEVPWTFGGGTKVEIK
B2: 219R45-MB-21M18: anti-VEGF/anti-DLL4 monovalent/bispecific antibody, heavy chains SEQ ID NO:7 and 5, light chains SEQ ID NO:8 (antibody)
heavy 1: QVQLVQSGAEVKKPGASVKVSCKASGYTFTNYWMHWVRQAPGQGLEWMGDINPSNGRTSYKEKFKRRVTLSVDKSSSTAYMELSSLRSEDTAVYFCTIHYDDKYYPLMDYWGQGTLVTVSSASTKGPSVFPLAPCSRSTSESTAALGCLVKDYFPEPVTVSWNSGALTSGVHTFPAVLQSSGLYSLSSVVTVPSSNFGTQTYTCNVDHKPSNTKVDKTVERKCCVECPPCPAPPVAGPSVFLFPPKPKDTLMISRTPEVTCVVVDVSHEDPEVQFNWYVDGVEVHNAKTKPREEQFNSTFRVVSVLTVVHQDWLNGKEYKCKVSNKGLPAPIEKTISKTKGQPREPQVYTLPPSREKMTKNQVSLTCLVKGFYPSDIAVEWESNGQPENNYKTTPPMLKSDGSFFLYSKLTVDKSRWQQGNVFSCSVMHEALHNHYTQKSLSLSPGK
heavy 2: QVQLVQSGAEVKKPGASVKISCKASGYSFTAYYIHWVKQAPGQGLEWIGYISSYNGATNYNQKFKGRVTFTTDTSTSTAYMELRSLRSDDTAVYYCARDYDYDVGMDYWGQGTLVTVSSASTKGPSVFPLAPCSRSTSESTAALGCLVKDYFPEPVTVSWNSGALTSGVHTFPAVLQSSGLYSLSSVVTVPSSNFGTQTYTCNVDHKPSNTKVDKTVERKCCVECPPCPAPPVAGPSVFLFPPKPKDTLMISRTPEVTCVVVDVSHEDPEVQFNWYVDGVEVHNAKTKPREEQFNSTFRVVSVLTVVHQDWLNGKEYKCKVSNKGLPAPIEKTISKTKGQPREPQVYTLPPSREEMTKNQVSLTCLVEGFYPSDIAVEWESNGQPENNYKTTPPMLDSDGSFFLYSELTVDKSRWQQGNVFSCSVMHEALHNHYTQKSLSLSPGK
light: DIVMTQSPDSLAVSLGERATISCRASESVDNYGISFMKWFQQKPGQPPKLLIYAASNQGSGVPDRFSGSGSGTDFTLTISSLQAEDVAVYYCQQSKEVPWTFGGGTKVEIKRTVAAPSVIFPPSDEQLKSGTASVVCLLNNFYPREAKVQWKVDNALQSGNSQESVTEQDSKDSTYSLSSTLTLSKADYEKHKVYACEVTHQGLSSPVTKSFNRGEC
modifications: 21R79 Heavy chain without predicted signal sequence; 21M18 Heavy chain without predicted signal sequence; Light chain without predicted signal sequence

Tests used:
[1] = target: T1, human VEGF165; experiment: Biacore binding affinity (KD) to human VEGF; conditions: Biacore 2000, biotinylated human VEGF165 on streptavidin chip; read-out: KD hVEGF
Experimental: The KDs of parental antibodies anti-VEGF 219R45 (IgG format), anti-DLL4 21R79 (IgG format), anti-DLL4 21M18 (IgG format) and bispecific antibodies 219R45-MB-21M18 and 219R45-MB-21R79 were determined using a Biacore 2000 system from Biacore LifeSciences (GE Healthcare). Recombinant human DLL4-Fc or mouse DLL4-Fc proteins were immobilized on CM5 carboxyl chips using standard amine-based chemistry (NHS/EDC) and blocked with ethanolamine. Recombinant human VEGF165 or mouse VEGF165 were biotinylated and immobilized on streptavidin chips. The antibodies were serially diluted 2-fold from 100 nM to 0.78 nM in HBS-P (0.01M HEPES pH7.4, 0.15M NaCl, 0.005% v/v Polysorbate 20). For each antibody, all 8 dilutions were sequentially injected over a specific chip. Kinetic data were collected over time and were fit using the simultaneous global fit equation to yield affinity constants (KD values) for each bispecific antibody.

[2] = system: OMP-C8 colon tumor; experiment: OMP-C8 colon tumor growth in vivo; parameters: species or system NOD/SCID mice
Experimental: FIGS. 11A and 11B. Inhibition of colon tumor growth in vivo by anti-VEGF/anti-DLL4 bispecific antibodies. OMP-C8 colon tumor cells were injected subcutaneously into NOD/SCID mice. Mice were treated with control antibody (-▪-), anti-VEGF antibody bevacizumab (-▴-), or anti-VEGF/anti-DLL4 bispecific antibodies 219R45-MB-21M18 (-⋄-), 219R45-MB-21R75 (-●-), 219R45-MB-21R79 (-∘-), or 219R45-MB-21R83 (-▾-). Mice were treated with antibodies as single agents (FIG. 11A) or in combination with irinotecan (FIG. 11B). Antibodies were administered intraperitoneally at a dose of 15 mg/kg once a week and irinotecan at a dose of 7.5 mg/kg one a week. Data are shown as tumor volume (mm^3) over days post-treatment.
Single cell suspensions of OMP-C8 colon tumor xenografts (50,000 cells) were injected subcutaneously into the flanks of 6-8 week old NOD/SCID mice. Tumors were allowed to grow for 21 days until they reached an average volume of 80 mm^3. The mice were randomized (n=8 per group) and treated with anti-DLL4 antibody 21M18, anti-VEGF antibody bevacizumab, anti-VEGF/anti-DLL4 bispecific antibodies 219R45-MB-21M18, 219R45-MB-21R75, 219R45-MB-21R79, 219R45-MB-21R83, or control antibody, either alone or in combination with irinotecan. Antibodies and irinotecan were dosed weekly by injection into the intraperitoneal cavity. Bevacizumab and bispecific antibodies 219R45-MB-21M18, 219R45-MB-21R75, 219R45-MB-21R79, and 219R45-MB-21R83 were dosed at 15 mg/kg, and irinotecan was dosed at 7.5 mg/kg. Tumor growth was monitored and tumor volumes were measured with electronic calipers at the indicated time points. Data are expressed as mean±S.E.M.
Following the treatment phase, tumor sections were prepared and analyzed by hematoxylin and eosin (H&E) staining. […] This is characteristic of highly necrotic tumor tissue.

Row | Molecule | Kd [1] [nM] | inhibition of tumor growth in combination with irinotecan ([2]; antibody 15 mg/kg, irinotecan 7.5 mg/kg weekly ip) | H&E staining of tumor sections after treatment ([2]; in combination with irinotecan)
1 | B1 | > 100 | – | –
2 | B2 | – | greatest inhibition of tumor growth | dark pink staining regions providing evidence of extensive calcification

From patent publication US11512128B2, “VEGF/DLL4 binding agents and uses thereof” (MEREO BIOPHARMA 5, INC., priority 2011, dated 2022)
